The Kd is a measure of binding affinity in units of concentration. A low value points to higher affinity.

The target in this assay is T1, C-terminally His-tagged human ECRG4(32–148) (human, UniProt Q9H1Z8 32-148).
T1 chain: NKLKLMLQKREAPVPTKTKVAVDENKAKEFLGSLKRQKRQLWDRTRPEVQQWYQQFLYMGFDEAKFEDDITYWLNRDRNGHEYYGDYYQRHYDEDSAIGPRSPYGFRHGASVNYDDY
In words: SPR. Background: SPR reads the build-up and loss of mass on a sensor chip optically.

B1: 2 × CTLD–Fc (two human LOX-1 CTLDs in tandem, Fc-fused) (Fc fusion)
chain: not shown
Molecule B1 displayed a Kd of 14.2 nM.
